Data from US20150344570A1 (published 2015).

B1: GpH7-A5/GpH7-B3 variant E333_07I/GpL16-k0 (antibody, human IgG1, kappa)
heavy 1: not shown
heavy 2: not shown
light: DIVMTQSPLSLPVTPGEPASISCQASESLVHSNRNTYLHWYLQKPGQSPQLLIYKVSNRFSGVPDRFSGSGSGTDFTLKISRVEAEDVGVYYCSQNTHVPPTFGQGTKVEIERTVAAPSVFIFPPSDEQLKSGTASVVCLLNNFYPREAKVQWKVDNALQSGNSQESVTEQDSKDSTYSLSSTLTLSKADYEKHKVYACEVTHQGLSSPVTKSFNRGEC
notes: also called He Ab E333_07I
B2: GpH7-A5/GpH7-B3 variant L234_03V/GpL16-k0 (antibody, human IgG1, kappa)
heavy 1: not shown
heavy 2: not shown
light: B1 light
notes: also called He Ab L234_03V
B3: GpH7-A5/GpH7-B3 variant L328_19Q/GpL16-k0 (antibody, human IgG1, kappa)
heavy 1: not shown
heavy 2: not shown
light: B1 light
notes: also called He Ab L328_19Q
B4: GpH7-A5/GpH7-B3 variant L234_04F/GpL16-k0 (antibody, human IgG1, kappa)
heavy 1: not shown
heavy 2: not shown
light: B1 light
notes: also called He Ab L234_04F
B5: GpH7-A5/GpH7-B3 variant K334_12R/GpL16-k0 (antibody, human IgG1, kappa)
heavy 1: not shown
heavy 2: not shown
light: B1 light
notes: also called He Ab K334_12R
B6: GpH7-A5/GpH7-B3 variant E333_12R/GpL16-k0 (antibody, human IgG1, kappa)
heavy 1: not shown
heavy 2: not shown
light: B1 light
notes: also called He Ab E333_12R
B7: GpH7-A5/GpH7-B3 variant P238_08L/GpL16-k0 (antibody, human IgG1, kappa)
heavy 1: not shown
heavy 2: not shown
light: B1 light
notes: also called He Ab P238_08L
B8: GpH7-A5/GpH7-B3 variant H268_14T/GpL16-k0 (antibody, human IgG1, kappa)
heavy 1: not shown
heavy 2: not shown
light: B1 light
notes: also called He Ab H268_14T
B9: GpH7-A5/GpH7-B3 variant I336_18N/GpL16-k0 (antibody, human IgG1, kappa)
heavy 1: not shown
heavy 2: not shown
light: B1 light
notes: also called He Ab I336_18N
B10: GpH7-A5/GpH7-B3 variant I336_06M/GpL16-k0 (antibody, human IgG1, kappa)
heavy 1: not shown
heavy 2: not shown
light: B1 light
notes: also called He Ab I336_06M
B11: GpH7-A5/GpH7-B3 variant L234_07I/GpL16-k0 (antibody, human IgG1, kappa)
heavy 1: not shown
heavy 2: not shown
light: B1 light
notes: also called He Ab L234_07I
B12: GpH7-A5/GpH7-B3 variant K326_16H/GpL16-k0 (antibody, human IgG1, kappa)
heavy 1: not shown
heavy 2: not shown
light: B1 light
notes: also called He Ab K326_16H
B13: GpH7-A5/GpH7-B3 variant L328_20W/GpL16-k0 (antibody, human IgG1, kappa)
heavy 1: not shown
heavy 2: not shown
light: B1 light
notes: also called He Ab L328_20W
B14: GpH7-A5/GpH7-B3 variant H268_05P/GpL16-k0 (antibody, human IgG1, kappa)
heavy 1: not shown
heavy 2: not shown
light: B1 light
notes: also called He Ab H268_05P
B15: GpH7-A5/GpH7-B3 variant H268_20W/GpL16-k0 (antibody, human IgG1, kappa)
heavy 1: not shown
heavy 2: not shown
light: B1 light
notes: also called He Ab H268_20W
B16: GpH7-A5/GpH7-B3 variant L234_06M/GpL16-k0 (antibody, human IgG1, kappa)
heavy 1: not shown
heavy 2: not shown
light: B1 light
notes: also called He Ab L234_06M
B17: GpH7-A5/GpH7-B3 variant K334_20W/GpL16-k0 (antibody, human IgG1, kappa)
heavy 1: not shown
heavy 2: not shown
light: B1 light
notes: also called He Ab K334_20W
B18: GpH7-A5/GpH7-B3 variant L328_03V/GpL16-k0 (antibody, human IgG1, kappa)
heavy 1: not shown
heavy 2: not shown
light: B1 light
notes: also called He Ab L328_03V
B19: GpH7-A5/GpH7-B3 variant I336_04F/GpL16-k0 (antibody, human IgG1, kappa)
heavy 1: not shown
heavy 2: not shown
light: B1 light
notes: also called He Ab I336_04F
B20: GpH7-A5/GpH7-B3 variant I336_03V/GpL16-k0 (antibody, human IgG1, kappa)
heavy 1: not shown
heavy 2: not shown
light: B1 light
notes: also called He Ab I336_03V
B21: GpH7-A5/GpH7-B3 variant P271_02A/GpL16-k0 (antibody, human IgG1, kappa)
heavy 1: not shown
heavy 2: not shown
light: B1 light
notes: also called He Ab P271_02A
B22: GpH7-A5/GpH7-B3 variant E333_16H/GpL16-k0 (antibody, human IgG1, kappa)
heavy 1: not shown
heavy 2: not shown
light: B1 light
notes: also called He Ab E333_16H
B23: GpH7-A5/GpH7-B3 variant K326_12R/GpL16-k0 (antibody, human IgG1, kappa)
heavy 1: not shown
heavy 2: not shown
light: B1 light
notes: also called He Ab K326_12R
B24: GpH7-A5/GpH7-B3 variant E333_14T/GpL16-k0 (antibody, human IgG1, kappa)
heavy 1: not shown
heavy 2: not shown
light: B1 light
notes: also called He Ab E333_14T
B25: GpH7-A5/GpH7-B3 variant P271_03V/GpL16-k0 (antibody, human IgG1, kappa)
heavy 1: not shown
heavy 2: not shown
light: B1 light
notes: also called He Ab P271_03V
B26: GpH7-A5/GpH7-B3 variant L234_10E/GpL16-k0 (antibody, human IgG1, kappa)
heavy 1: not shown
heavy 2: not shown
light: B1 light
notes: also called He Ab L234_10E
B27: GpH7-A5/GpH7-B3 variant K326_14T/GpL16-k0 (antibody, human IgG1, kappa)
heavy 1: not shown
heavy 2: not shown
light: B1 light
notes: also called He Ab K326_14T
B28: GpH7-A5/GpH7-B3 variant E333_08L/GpL16-k0 (antibody, human IgG1, kappa)
heavy 1: not shown
heavy 2: not shown
light: B1 light
notes: also called He Ab E333_08L
B29: GpH7-A5/GpH7-B3 variant E333_15Y/GpL16-k0 (antibody, human IgG1, kappa)
heavy 1: not shown
heavy 2: not shown
light: B1 light
notes: also called He Ab E333_15Y
B30: GpH7-A5/GpH7-B3 variant K326_15Y/GpL16-k0 (antibody, human IgG1, kappa)
heavy 1: not shown
heavy 2: not shown
light: B1 light
notes: also called He Ab K326_15Y
B31: GpH7-A5/GpH7-B3 variant I336_10E/GpL16-k0 (antibody, human IgG1, kappa)
heavy 1: not shown
heavy 2: not shown
light: B1 light
notes: also called He Ab I336_10E
B32: GpH7-A5/GpH7-B3 variant E333_09D/GpL16-k0 (antibody, human IgG1, kappa)
heavy 1: not shown
heavy 2: not shown
light: B1 light
notes: also called He Ab E333_09D
B33: GpH7-A5/GpH7-B3 variant I332_12R/GpL16-k0 (antibody, human IgG1, kappa)
heavy 1: not shown
heavy 2: not shown
light: B1 light
notes: also called He Ab I332_12R
B34: GpH7-A5/GpH7-B3 variant P238_10E/GpL16-k0 (antibody, human IgG1, kappa)
heavy 1: not shown
heavy 2: not shown
light: B1 light
notes: also called He Ab P238_10E
B35: GpH7-A5/GpH7-B3 variant H268_02A/GpL16-k0 (antibody, human IgG1, kappa)
heavy 1: not shown
heavy 2: not shown
light: B1 light
notes: also called He Ab H268_02A
B36: GpH7-A5/GpH7-B3 variant G236_02A/GpL16-k0 (antibody, human IgG1, kappa)
heavy 1: not shown
heavy 2: not shown
light: B1 light
notes: also called He Ab G236_02A
B37: GpH7-A5/GpH7-B3 variant K334_10E/GpL16-k0 (antibody, human IgG1, kappa)
heavy 1: not shown
heavy 2: not shown
light: B1 light
notes: also called He Ab K334_10E
B38: GpH7-A5/GpH7-B3 variant K334_06M/GpL16-k0 (antibody, human IgG1, kappa)
heavy 1: not shown
heavy 2: not shown
light: B1 light
notes: also called He Ab K334_06M
B39: GpH7-A5/GpH7-B3 variant P238_06M/GpL16-k0 (antibody, human IgG1, kappa)
heavy 1: not shown
heavy 2: not shown
light: B1 light
notes: also called He Ab P238_06M
B40: GpH7-A5/GpH7-B3 variant K326_18N/GpL16-k0 (antibody, human IgG1, kappa)
heavy 1: not shown
heavy 2: not shown
light: B1 light
notes: also called He Ab K326_18N
B41: GpH7-A5/GpH7-B3 variant L328_10E/GpL16-k0 (antibody, human IgG1, kappa)
heavy 1: not shown
heavy 2: not shown
light: B1 light
notes: also called He Ab L328_10E
B42: GpH7-A5/GpH7-B3 variant P238_03V/GpL16-k0 (antibody, human IgG1, kappa)
heavy 1: not shown
heavy 2: not shown
light: B1 light
notes: also called He Ab P238_03V
B43: GpH7-A5/GpH7-B3 variant E333_11K/GpL16-k0 (antibody, human IgG1, kappa)
heavy 1: not shown
heavy 2: not shown
light: B1 light
notes: also called He Ab E333_11K
B44: GpH7-A5/GpH7-B3 variant H268_07I/GpL16-k0 (antibody, human IgG1, kappa)
heavy 1: not shown
heavy 2: not shown
light: B1 light
notes: also called He Ab H268_07I
B45: GpH7-A5/GpH7-B3 variant L234_15Y/GpL16-k0 (antibody, human IgG1, kappa)
heavy 1: not shown
heavy 2: not shown
light: B1 light
notes: also called He Ab L234_15Y
B46: GpH7-A5/GpH7-B3 variant I336_02A/GpL16-k0 (antibody, human IgG1, kappa)
heavy 1: not shown
heavy 2: not shown
light: B1 light
notes: also called He Ab I336_02A
B47: GpH7-A5/GpH7-B3 variant H268_08L/GpL16-k0 (antibody, human IgG1, kappa)
heavy 1: not shown
heavy 2: not shown
light: B1 light
notes: also called He Ab H268_08L
B48: GpH7-A5/GpH7-B3 variant P238_04F/GpL16-k0 (antibody, human IgG1, kappa)
heavy 1: not shown
heavy 2: not shown
light: B1 light
notes: also called He Ab P238_04F
B49: GpH7-A5/GpH7-B3 variant L328_14T/GpL16-k0 (antibody, human IgG1, kappa)
heavy 1: not shown
heavy 2: not shown
light: B1 light
notes: also called He Ab L328_14T
B50: GpH7-A5/GpH7-B3 variant G236_20W/GpL16-k0 (antibody, human IgG1, kappa)
heavy 1: not shown
heavy 2: not shown
light: B1 light
notes: also called He Ab G236_20W
B51: GpH7-A5/GpH7-B3 variant H268_12R/GpL16-k0 (antibody, human IgG1, kappa)
heavy 1: not shown
heavy 2: not shown
light: B1 light
notes: also called He Ab H268_12R
B52: GpH7-A5/GpH7-B3 variant I336_01G/GpL16-k0 (antibody, human IgG1, kappa)
heavy 1: not shown
heavy 2: not shown
light: B1 light
notes: also called He Ab I336_01G
B53: GpH7-A5/GpH7-B3 variant E333_13S/GpL16-k0 (antibody, human IgG1, kappa)
heavy 1: not shown
heavy 2: not shown
light: B1 light
notes: also called He Ab E333_13S
B54: GpH7-A5/GpH7-B3 variant P238_15Y/GpL16-k0 (antibody, human IgG1, kappa)
heavy 1: not shown
heavy 2: not shown
light: B1 light
notes: also called He Ab P238_15Y

Biological target: T1, FcγRIa (human, UniProt P12314 16-292)
T1 construct: extracellular domain; also called FcgRI; 1a
T1 sequence (P12314 16-292): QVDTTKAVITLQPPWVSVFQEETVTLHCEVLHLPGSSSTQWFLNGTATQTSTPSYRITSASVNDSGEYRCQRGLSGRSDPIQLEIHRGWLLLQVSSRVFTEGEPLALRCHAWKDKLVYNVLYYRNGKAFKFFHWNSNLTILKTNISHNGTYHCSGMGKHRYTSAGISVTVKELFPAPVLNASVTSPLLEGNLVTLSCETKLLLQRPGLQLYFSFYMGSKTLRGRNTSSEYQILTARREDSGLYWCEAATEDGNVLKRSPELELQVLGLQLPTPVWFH
Experiment: SPR (Biacore); He Ab relative to HeCon Ab = 100
Description: Analysis of interaction between objective antibody and the FcγR was carried out using Biacore T100 (GE Healthcare). HBS-EP+ (GE Healthcare) was used as the running buffer, and the measurement temperature was set to 25° C. Chips produced by immobilizing the antigen peptide by the amine coupling method to a Series S Sencor Chip CM5 (GE Healthcare), or alternatively, chips produced by allowing preliminarily biotinylated antigen peptides to interact with and immobilize onto a Series S Sensor Chip SA (certified) (GE Healthcare) were used. Antibodies of interest were captured onto an antigen peptide-immobilized chip, and allowed to interact to each FcγR diluted with running buffer. To regenerate and repeatedly use the chip, the antibodies captured on the chip were washed off by reacting 10 mM glycine-HCl, pH 1.5.

Row | Binder | He/Con_1a
1 | B1 | 102 % of control
2 | B2 | 104 % of control
3 | B3 | 101 % of control
4 | B4 | 101 % of control
5 | B5 | 104 % of control
6 | B6 | 102 % of control
7 | B7 | 101 % of control
8 | B8 | 112 % of control
9 | B9 | 108 % of control
10 | B10 | 108 % of control
11 | B11 | 103 % of control
12 | B12 | 103 % of control
13 | B13 | 103 % of control
14 | B14 | 109 % of control
15 | B15 | 107 % of control
16 | B16 | 104 % of control
17 | B17 | 106 % of control
18 | B18 | 101 % of control
19 | B19 | 106 % of control
20 | B20 | 105 % of control
21 | B21 | 104 % of control
22 | B22 | 101 % of control
23 | B23 | 100 % of control
24 | B24 | 102 % of control
25 | B25 | 102 % of control
26 | B26 | 100 % of control
27 | B27 | 104 % of control

Row | Binder | He/Con_1a
28 | B28 | 102 % of control
29 | B29 | 101 % of control
30 | B30 | 106 % of control
31 | B31 | 108 % of control
32 | B32 | 104 % of control
33 | B33 | 100 % of control
34 | B34 | 102 % of control
35 | B35 | 109 % of control
36 | B36 | 100 % of control
37 | B37 | 110 % of control
38 | B38 | 105 % of control
39 | B39 | 102 % of control
40 | B40 | 105 % of control
41 | B41 | 101 % of control
42 | B42 | 100 % of control
43 | B43 | 102 % of control
44 | B44 | 108 % of control
45 | B45 | 100 % of control
46 | B46 | 106 % of control
47 | B47 | 107 % of control
48 | B48 | 101 % of control
49 | B49 | 100 % of control
50 | B50 | 105 % of control
51 | B51 | 106 % of control
52 | B52 | 109 % of control
53 | B53 | 103 % of control
54 | B54 | 101 % of control
